Like-named read-outs stand apart in the source and are kept apart here.
Legend:
rat = details: cited from earlier work
[1] = Percentage Met-Hb over time of stroma free hemoglobin with/without solvent-detergent; assay type: physicochemical
Procedure: (§1) The solvent-detergent treatment was performed at a concentration of 1% Tween 80 […] and 0.3% Tri-N-Butyl Phosphate […]. […] All testing was performed at neutral pH in phosphate buffered saline.
(§2) After treatment, the mixture was centrifuged at 8,000 rpm (4,600 g) for 6 minutes at room temperature.

[2] = Total Hb over time of stroma free hemoglobin with/without solvent-detergent; assay type: physicochemical
Procedure: as §1, §2

[3] = in vivo; cited from earlier work

CCCO [1-Propanol]
LD50 (oral-rat) (rat; in vivo, po): 1900 mg/kg

CCC(C)=O [2-Butanone]
LD50 (oral-rat) (rat; oral): 2700 mg/kg

CC(C)O [2-Propanol]
LD50 (oral-rat) (rat; in vivo, po): 5000 mg/kg

CC#N [Acetonitrile]
LD50 (oral-rat) (rat; oral): 3800 mg/kg

COCCOC [Dimethoxy- ethane (glyme), Dimethoxy- ethane]
LD50 (oral-rat) (rat; oral): 10000 mg/kg

CCOC(C)=O [Ethyl acetate]
LD50 (oral-rat) (rat; in vivo, po): 11000 mg/kg

CO [Methanol]
LD50 (oral-rat) (rat; oral): 5600 mg/kg

SFH: stroma free hemoglobin prepared as in Example 1, 8.6-9.0 g % in PBS
Percentage Met-Hb ([1]; 2-6° C., 0 hrs): 2.15%
Percentage Met-Hb ([1]; 2-6° C., 1 hrs): 2.2%
Percentage Met-Hb ([1]; 2-6° C., 2 hrs): 2.25%
Percentage Met-Hb ([1]; 2-6° C., 3 hrs): 2.15%
Percentage Met-Hb ([1]; 2-6° C., 4 hrs): 2.1%
Percentage Met-Hb ([1]; 2-6° C., 5 hrs): 2.25%
Percentage Met-Hb ([1]; 21-23° C., 0 hrs): 2.2%
Percentage Met-Hb ([1]; 21-23° C., 1 hrs): 2.4%
Percentage Met-Hb ([1]; 21-23° C., 2 hrs): 2.45%
Percentage Met-Hb ([1]; 21-23° C., 3 hrs): 2.45%
Percentage Met-Hb ([1]; 21-23° C., 4 hrs): 2.6%
Percentage Met-Hb ([1]; 21-23° C., 5 hrs): 2.8%
Total Hb ([2]; 2-6° C., 0 hrs): 8.6 g %
Total Hb ([2]; 2-6° C., 1 hrs): 8.5 g %
Total Hb ([2]; 2-6° C., 2 hrs): 8.55 g %
Total Hb ([2]; 2-6° C., 3 hrs): 8.65 g %
Total Hb ([2]; 2-6° C., 4 hrs): 8.65 g %
Total Hb ([2]; 2-6° C., 5 hrs): 8.55 g %
Total Hb ([2]; 21-23° C., 0 hrs): 8.5 g %
Total Hb ([2]; 21-23° C., 1 hrs): 8.55 g %
Total Hb ([2]; 21-23° C., 2 hrs): 8.55 g %
Total Hb ([2]; 21-23° C., 3 hrs): 8.65 g %
Total Hb ([2]; 21-23° C., 4 hrs): 8.6 g %
Total Hb ([2]; 21-23° C., 5 hrs): 8.55 g %

conjugate of hemoglobin (with a molecular weight of 64,000) and dextran (having a molecular weight of 20,000): hemoglobin conjugated to dextran of molecular weight 20,000, reported by Blumenstein et al.
clearance from the circulation and through the kidneys [3]: cleared slowly from the circulation and negligibly through the kidneys

Reference: patent publication US20080138790A1 (priority 2004, published 2008)
